Values belong to the binder of their own block, whether it stands above or below them.
How the values were obtained:
[1] = biological target: T1, recombinant soluble HER3 (extracellular domain) (UniProt P21860 20-643, limits assumed); assay: NRG1 competition ELISA on coated recombinant soluble HER3
T1 construct: extracellular domain; also called ERBB3

[2] = biological target: T2, HER3 on HER3-transfected SP 2/0 cells (human, UniProt P21860 20-1342); assay: flow cytometry, HER3-transfected SP2/0 cells stained with 1 µg/ml antibody, PE-goat anti-mouse IgG
T2 construct: whole, on cells; The flow cytometry text says only 'HER3 transfected SP2/0 cells'; also called human HER3 expressing SP 2/0 cells
T2 sequence (P21860 20-1342): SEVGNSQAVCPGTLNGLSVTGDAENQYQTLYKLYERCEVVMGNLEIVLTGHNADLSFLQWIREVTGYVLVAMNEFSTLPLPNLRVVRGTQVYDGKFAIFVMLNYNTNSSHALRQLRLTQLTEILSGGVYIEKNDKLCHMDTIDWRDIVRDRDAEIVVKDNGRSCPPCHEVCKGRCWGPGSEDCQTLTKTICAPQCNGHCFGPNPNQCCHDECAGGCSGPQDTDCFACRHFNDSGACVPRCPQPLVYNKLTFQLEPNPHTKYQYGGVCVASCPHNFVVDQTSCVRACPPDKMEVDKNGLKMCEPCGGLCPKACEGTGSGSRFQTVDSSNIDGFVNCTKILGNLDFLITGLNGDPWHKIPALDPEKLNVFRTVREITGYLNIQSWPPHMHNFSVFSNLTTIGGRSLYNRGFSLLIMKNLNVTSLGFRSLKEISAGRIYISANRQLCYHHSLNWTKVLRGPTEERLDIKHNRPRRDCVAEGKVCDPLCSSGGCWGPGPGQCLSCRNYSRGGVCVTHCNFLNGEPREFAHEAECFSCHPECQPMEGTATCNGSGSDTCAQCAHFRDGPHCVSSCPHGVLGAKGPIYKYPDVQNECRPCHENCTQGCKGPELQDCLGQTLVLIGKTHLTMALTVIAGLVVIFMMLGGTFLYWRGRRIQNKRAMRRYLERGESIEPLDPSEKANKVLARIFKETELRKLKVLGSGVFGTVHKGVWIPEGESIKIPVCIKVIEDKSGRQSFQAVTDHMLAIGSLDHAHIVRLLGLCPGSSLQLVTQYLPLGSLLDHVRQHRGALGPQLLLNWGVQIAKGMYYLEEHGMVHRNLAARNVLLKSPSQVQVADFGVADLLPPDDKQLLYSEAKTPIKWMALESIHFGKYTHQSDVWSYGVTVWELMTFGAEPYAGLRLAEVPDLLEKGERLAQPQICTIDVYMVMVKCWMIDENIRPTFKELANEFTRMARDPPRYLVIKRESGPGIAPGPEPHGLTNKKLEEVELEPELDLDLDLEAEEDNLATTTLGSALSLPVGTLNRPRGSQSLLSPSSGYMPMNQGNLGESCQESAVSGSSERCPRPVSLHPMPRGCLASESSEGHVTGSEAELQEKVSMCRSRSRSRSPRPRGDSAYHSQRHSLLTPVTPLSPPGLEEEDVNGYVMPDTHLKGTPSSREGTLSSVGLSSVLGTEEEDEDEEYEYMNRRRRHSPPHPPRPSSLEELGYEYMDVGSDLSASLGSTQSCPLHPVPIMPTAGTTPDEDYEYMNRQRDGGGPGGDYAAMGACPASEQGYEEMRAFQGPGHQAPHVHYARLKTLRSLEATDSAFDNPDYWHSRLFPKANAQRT
Method: The average OD values of triplicates are presented. […] EGFR, HER2 or HER3-transfected SP 2/0 cells were stained with 1 μg/ml of purified antibody, followed by PE-goat anti-mouse IgG.
An ELISA plate was coated with 1 μg/ml of recombinant soluble EGFR, HER2, or the extracellular domain of HER3.

T1 sequence (P21860 20-643 limits assumed): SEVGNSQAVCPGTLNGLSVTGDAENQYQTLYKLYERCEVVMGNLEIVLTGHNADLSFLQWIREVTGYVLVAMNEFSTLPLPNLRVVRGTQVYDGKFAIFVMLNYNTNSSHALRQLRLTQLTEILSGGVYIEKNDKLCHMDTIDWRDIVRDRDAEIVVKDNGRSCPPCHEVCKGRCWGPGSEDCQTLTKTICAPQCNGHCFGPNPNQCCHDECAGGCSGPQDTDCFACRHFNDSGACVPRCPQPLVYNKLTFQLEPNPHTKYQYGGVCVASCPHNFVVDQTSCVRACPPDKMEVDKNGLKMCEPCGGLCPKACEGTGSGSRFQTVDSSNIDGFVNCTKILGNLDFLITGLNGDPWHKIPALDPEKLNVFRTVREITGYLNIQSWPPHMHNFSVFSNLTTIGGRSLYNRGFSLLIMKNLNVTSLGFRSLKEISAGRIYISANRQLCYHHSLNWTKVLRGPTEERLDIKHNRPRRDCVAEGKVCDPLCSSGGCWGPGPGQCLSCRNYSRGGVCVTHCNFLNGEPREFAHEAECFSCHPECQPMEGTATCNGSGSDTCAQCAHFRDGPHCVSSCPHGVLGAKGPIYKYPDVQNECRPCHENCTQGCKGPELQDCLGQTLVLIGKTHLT

- binding result [1]: binds
- binding result [2]: binds
B1: 1A5 antibody (antibody, V domains shown)
VH: QVQLQQSGAELARPGASVKLSCKASGYTFTDNYINWMKQRPGQGLEWIGEIYPGSGNTYYNEKFKGKATLTADKSSSTAYMQLSSLTSEESAVYFCARSPNLRLYYFDYWGQGTTLTVSS
VL: DIVMTQSPATLSVTPGDRVSLSCRASQSINDYLYWYQQKLHESPRLLIKFASHSISGIPSRFSGSGSGSDFTLSINSVEPEDVGVYYCQNGHSFPLTFGAGTKLELK
notes: Hybridoma monoclonal antibody detected with goat anti-mouse IgG; also called ligand-independent HER3 antibody

- binding result [1]: binds
- binding result [2]: binds
B2: 3D4 antibody (antibody, V domains shown)
VH: QVQLQQSGPELVKPGASVRISCKASGYTFTNYFLHWMKQRPGQGLEWIGWIYPGNVNTKYSEKFKGKATLTADKSSSTAYMQLSSLTSEDSAVYFCARSTYYSMDYWGQGTSVTVSS
VL: DIVLTQSPASLAVSLGQRATISCRASESVDSYGNSFMNWYQQKPGQPPKVLIYRASNLESGIPARFSGSGSRTDFTLTITPVEADDVATYYCQQSYEDPPTFGGGTKLEIK
notes: Mouse monoclonal antibody raised against human HER3 expressing SP 2/0 cells; also called ligand-dependent HER3 antibody

From patent publication US20140314774A1 (UAB RESEARCH FOUNDATION, published 2014)
